Target: Acinetobacter baumannii alanine racemase (Acinetobacter baumannii strain NCTC13302) (UniProt B0VNF6)
Assay: crystal structure; sitting drops, 100 mM MES pH 6.0, 200 mM CaCl2, 20% PEG 6000; space group P2(1), two monomers in the asymmetric unit; 1.9 Å; interface analysed with PISA

Acinetobacter baumannii alanine racemase (from UniProt B0VNF6 1-367) (enzyme)
stoichiometry N: 2
